The target in assay [1] is human CD3εδ (human) (UniProt P07766). Kind of assay: SPR, Biacore T200; human CD3εδ immobilised on CM5 chip, antibody as analyte. For orientation: SPR reads the build-up and loss of mass on a sensor chip optically.
The target is the same in assay [2]. Description: SPR, Biacore T200; human CD3εδ immobilised on CM5 chip, antibody as analyte (Example 2-3).
For the next assay, the target named is human CD3εγ (human) (UniProt P07766). Kind of assay: SPR, Biacore T200; human CD3εγ immobilised on CM5 chip, antibody as analyte.
Assay [3] has as its target human CD3εδ (human) (UniProt P07766). Kind of assay: SPR, Biacore T200; ratio between the KD values on CD3εδ and CD3εγ.
The target in assay [4] is human CD3 on T cells of human peripheral blood mononuclear cells (human) (UniProt P07766). Kind of assay: cell-based or functional assay.

Broadly, the Kd is the free concentration of one partner at which half of the binding sites on the other are occupied at equilibrium, for simple one-to-one binding. A higher Kd goes with lower affinity.

Chain of human CD3εδ (human) (P07766 23-126, stated change not applied, chain 1 of 2): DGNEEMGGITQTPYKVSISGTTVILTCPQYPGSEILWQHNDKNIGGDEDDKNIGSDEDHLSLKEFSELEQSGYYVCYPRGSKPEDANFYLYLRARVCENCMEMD
Chain of human CD3εδ (human) (P04234 22-105, stated change not applied, chain 2 of 2, further chain): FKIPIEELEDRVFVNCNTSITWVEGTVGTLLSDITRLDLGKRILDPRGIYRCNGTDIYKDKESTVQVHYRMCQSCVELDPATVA
Chain of human CD3 on T cells of human peripheral blood mononuclear cells (human) (P07766 23-207, chain 1 of 3): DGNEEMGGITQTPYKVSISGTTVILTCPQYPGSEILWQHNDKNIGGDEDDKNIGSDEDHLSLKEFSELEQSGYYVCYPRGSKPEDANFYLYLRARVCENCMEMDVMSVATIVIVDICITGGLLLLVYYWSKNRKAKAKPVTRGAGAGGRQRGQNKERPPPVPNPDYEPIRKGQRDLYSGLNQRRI
Chain of human CD3 on T cells of human peripheral blood mononuclear cells (human) (P04234 22-171, chain 2 of 3, further chain): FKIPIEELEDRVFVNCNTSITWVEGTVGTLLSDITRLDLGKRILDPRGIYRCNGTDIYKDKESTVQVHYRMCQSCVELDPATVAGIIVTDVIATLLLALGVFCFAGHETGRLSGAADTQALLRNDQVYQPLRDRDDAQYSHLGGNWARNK
Chain of human CD3 on T cells of human peripheral blood mononuclear cells (human) (P09693 23-182, chain 3 of 3, further chain): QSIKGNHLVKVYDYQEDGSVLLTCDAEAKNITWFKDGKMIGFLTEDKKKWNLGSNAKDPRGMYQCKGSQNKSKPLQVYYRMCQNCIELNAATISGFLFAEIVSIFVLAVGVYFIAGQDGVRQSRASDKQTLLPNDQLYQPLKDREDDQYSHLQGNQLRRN
Chain of human CD3εγ (human) (P07766 23-126, chain 1 of 2): as the sequence (P07766 23-126, stated change not applied, chain 1 of 2) above
Chain of human CD3εγ (human) (P09693 23-116, chain 2 of 2, further chain): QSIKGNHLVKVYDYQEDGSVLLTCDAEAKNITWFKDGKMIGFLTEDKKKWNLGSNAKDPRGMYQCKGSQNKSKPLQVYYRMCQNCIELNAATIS

The substance CD3 (UCHT1)-binding monoclonal antibody came in with a Kd with human CD3εδ (human) [1] of 0.0141 nM. The Kd with human CD3εδ (human) [2] is 0.0341 nM. The substance further returned a Kd with human CD3εγ (human) of 0.272 nM. Further, the ratio of the binding strength to CD3εδ / binding strength to CD3εγ in the assay with human CD3εδ (human) [3] is 19.3 fold. For the same substance, in assay [4], the Death of cancer cells, EC50 nM (MDA-MB-231 + human PBMC, 48 h) amounted to 0.0005 nM; the Death of cancer cells, Emax (%) was 46%; the IFNγ release, EC50 nM was determined as 0.003 nM; the IFNγ release, Maximum concentration worked out at 16 ng/mL. The substance also had a T cell activation (CD3+ CD8+ CD69+), human PBMC alone without target cells in assay [4] of 60%.
